Values belong to the binder of their own block, whether it stands above or below them.
Experiments:
[1] = molecular target: T1, human ROR1 extracellular domain-Fc fusion (human, UniProt Q01973 30-406); test: SPR, hROR1 ECD-Fc on chip
T1 construct: extracellular domain; also called hROR1; ROR1-hFc

D3-[G4S]5-D3 homodimer = molecular target: T2, D3-[G4S]5-D3 homodimer; test: competition ELISA: D3-D3 pre-incubated with the peptide (25% DMSO), residual binding to coated huROR1-Fc
T2 construct: also called D3-D3; D3D3; not shown: C-terminal His6 or His6Myc tag (His6Myc in flow cytometry)

[2] = molecular target: T3, B1 VNAR (C-terminal His6 or His6Myc tag, not said which); test: competition ELISA: B1 pre-incubated with the peptide, residual binding to coated huROR1-Fc
T3 construct: shark VNAR domain; also called VNAR B1; B1 monomer

D3 VNAR = molecular target: T4, D3 VNAR; test: competition ELISA: D3 pre-incubated with the peptide (25% DMSO), residual binding to coated huROR1-Fc
T4 construct: shark VNAR domain; also called D3 WT; D3 monomer; not shown: C-terminal His6 or His6Myc tag (His6Myc in flow cytometry)

[3] = molecular target: T1, human ROR1 extracellular domain-Fc …; test: SPR
[4] = molecular target: T1, human ROR1 extracellular domain-Fc …; test: SPR; remark: listed apart in the source
cynomolgus serum albumin [5] = molecular target: T5, cynomolgus serum albumin (cynomolgus); test: SPR, CSA on chip, pH 5.5
T5 construct: also called CSA; Cyano

cynomolgus serum albumin [6] = molecular target: T5, cynomolgus serum albumin; test: SPR, CSA on chip, pH 7.4

T5 sequence (A2V9Z4 25-608): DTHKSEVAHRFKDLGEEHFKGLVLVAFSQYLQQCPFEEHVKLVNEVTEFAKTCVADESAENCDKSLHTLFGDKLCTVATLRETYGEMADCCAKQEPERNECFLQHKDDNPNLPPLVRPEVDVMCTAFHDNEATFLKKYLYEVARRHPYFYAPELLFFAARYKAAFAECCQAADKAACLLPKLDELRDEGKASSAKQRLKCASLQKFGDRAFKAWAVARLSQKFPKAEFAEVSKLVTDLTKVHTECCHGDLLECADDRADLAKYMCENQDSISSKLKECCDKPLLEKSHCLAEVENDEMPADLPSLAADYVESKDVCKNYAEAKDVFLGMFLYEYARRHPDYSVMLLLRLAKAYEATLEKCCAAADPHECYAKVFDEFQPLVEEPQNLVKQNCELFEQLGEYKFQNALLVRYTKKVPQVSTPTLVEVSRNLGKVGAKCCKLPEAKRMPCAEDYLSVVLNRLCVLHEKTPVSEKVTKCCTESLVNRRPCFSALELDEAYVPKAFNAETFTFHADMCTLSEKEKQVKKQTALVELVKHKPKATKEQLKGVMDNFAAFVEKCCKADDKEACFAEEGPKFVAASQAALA
T4 sequence (chain, as listed by the source): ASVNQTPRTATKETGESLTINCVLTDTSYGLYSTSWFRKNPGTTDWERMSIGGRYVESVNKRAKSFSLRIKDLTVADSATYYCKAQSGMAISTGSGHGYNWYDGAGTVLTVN
T3 sequence (chain, as listed by the source): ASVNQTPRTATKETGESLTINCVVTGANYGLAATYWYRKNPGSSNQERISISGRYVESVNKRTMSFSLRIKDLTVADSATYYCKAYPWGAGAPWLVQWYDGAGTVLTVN
T2 sequence (chain, as listed by the source): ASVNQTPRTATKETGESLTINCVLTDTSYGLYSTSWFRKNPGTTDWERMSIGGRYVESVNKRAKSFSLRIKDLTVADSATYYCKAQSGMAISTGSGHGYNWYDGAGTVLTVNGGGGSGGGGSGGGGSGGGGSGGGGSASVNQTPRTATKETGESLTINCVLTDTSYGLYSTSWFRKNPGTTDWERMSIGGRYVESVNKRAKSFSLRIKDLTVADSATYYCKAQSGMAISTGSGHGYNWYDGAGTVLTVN

binding result (D3-[G4S]5-D3 homodimer): no binding
binding result [2]: no binding (tested: 10 uM)
binding result (D3 VNAR): no binding
B3: ROR1 ECD Peptide 1 (peptide)
peptide: YMESLHMQGEIENQI
notes: synthetic linear peptide

Kd [3]: 1.61 nM
koff [3]: 0.00296 s⁻¹
kon [3]: 1.86e+06 M⁻¹ s⁻¹
Kd [4]: 0.35 nM
koff [4]: 0.000637 s⁻¹
kon [4]: 2.08e+06 M⁻¹ s⁻¹
B4: P3A1-[G4S]5-P3A1 homodimer with His6Myc tag (VNAR)
chain: TRVDQTPRTATKETGESLTINCVLTDTSYGLYSTSWFRKNPGTTDWERMSIGGRYVESVNKGAKSFSLRIKDLTVADSATYYCKAREARHPWLRQWYDGAGTVLTVNGGGGSGGGGSGGGGSGGGGSGGGGSTRVDQTPRTATKETGESLTINCVLTDTSYGLYSTSWFRKNPGTTDWERMSIGGRYVESVNKGAKSFSLRIKDLTVADSATYYCKAREARHPWLRQWYDGAGTVLTVNQASGAHHHHHHGAEFEQKLISEEDL
notes: genetic fusion of two VNAR domains; also called P3A1 dimer 6xHis myc; P3A1-P3A1

binding result (D3-[G4S]5-D3 homodimer): no binding
binding result [2]: no binding (tested: 10 uM)
binding result (D3 VNAR): no binding
B12: ROR1 ECD Peptide 3 (peptide)
peptide: CQPWNSQYPHTHTFTALRFP
notes: synthetic linear peptide

Kd (cynomolgus serum albumin [5]): 8.21 nM
Kd (cynomolgus serum albumin [6]): 3.68 nM
B18: BA11-cys-maleimide-peg-fluorescein (VNAR)
VNAR: TRVDQSPSSLSASVGDRVTITCVLTDTSYPLYSTYWYRKNPGSSNKEQISISGRYSESVNKGTKSFTLTISSLQPEDSATYYCRAMSTNIWTGDGAGTKVEIK
modifications: C-terminal cysteine joined to maleimide-peg-fluorescein
notes: also called BA11-cys-mal-Fl

Kd (cynomolgus serum albumin [5]): 5.54 nM
Kd (cynomolgus serum albumin [6]): 1.75 nM
B19: BA11-oxime-fluorescein (VNAR)
VNAR: TRVDQSPSSLSASVGDRVTITCVLTDTSYPLYSTYWYRKNPGSSNKEQISISGRYSESVNKGTKSFTLTISSLQPEDSATYYCRAMSTNIWTGDGAGTKVEIK
modifications: C-terminal aminoxy joined by oxime to benzaldehyde-peg-fluorescein

Kd (cynomolgus serum albumin [5]): 7.01 nM
Kd (cynomolgus serum albumin [6]): 2.3 nM
B21: BA11-S-maleimide-peg-fluorescein (VNAR)
VNAR: TRVDQSPSSLSASVGDRVTITCVLTDTSYPLYSTYWYRKNPGSSNKEQISISGRYSESVNKGTKSFTLTISSLQPEDSATYYCRAMSTNIWTGDGAGTKVEIK
modifications: C-terminal thiol joined to maleimide-peg-fluorescein
notes: also called BA11-S-mal-Fl

Kd (cynomolgus serum albumin [6]): 7.97 nM
B22: BA11-aminoxy (VNAR)
VNAR: TRVDQSPSSLSASVGDRVTITCVLTDTSYPLYSTYWYRKNPGSSNKEQISISGRYSESVNKGTKSFTLTISSLQPEDSATYYCRAMSTNIWTGDGAGTKVEIK
modifications: C-terminal aminoxy from dioxyamine cleavage of the intein fusion

binding result (D3-[G4S]5-D3 homodimer): no binding
binding result [2]: no binding (tested: 10 uM)
binding result (D3 VNAR): no binding
B24: ROR1 ECD Peptide 2 (peptide)
peptide: RSTIYGSRLRINLDTTDTGYFQ
notes: synthetic linear peptide; insoluble in PBS, repeated in 25% DMSO

Further lines, the binder ahead of its results:

B1: P3A1 V1 dimer (VNAR)
chain: TRVDQSPSSLSASVGDRVTITCVLTDTSYGLYSTSWFRKNPGTTDWERMSIGGRYVESVNKGAKSFTLTISSLQPEDFATYYCKAREARHPWLRQWYDGAGTKVEIKGGGGSGGGGSGGGGSGGGGSGGGGSTRVDQSPSSLSASVGDRVTITCVLTDTSYGLYSTSWFRKNPGTTDWERMSIGGRYVESVNKGAKSFTLTISSLQPEDFATYYCKAREARHPWLRQWYDGAGTKVEIKQASGAHHHHHHGAEFEQKLISEEDLG
notes: humanised VNAR dimer
Kd [1]: 0.18 nM
koff [1]: 0.000846 s⁻¹
kon [1]: 4.78e+06 M⁻¹ s⁻¹

B2: P3A1 G2 dimer (VNAR)
chain: TRVDQSPSSLSASVGDRVTITCVLTDTSYGLYSTYWYRKNPGTTDWERMSIGGRYSESVNKGAKSFTLTISSLQPEDSATYYCRAREARHPWLRQWYDGAGTKVEIKGGGGSGGGGSGGGGSGGGGSGGGGSTRVDQSPSSLSASVGDRVTITCVLTDTSYGLYSTYWYRKNPGTTDWERMSIGGRYSESVNKGAKSFTLTISSLQPEDSATYYCRAREARHPWLRQWYDGAGTKVEIKQASGAHHHHHHGAEFEQKLISEEDLG
notes: humanised VNAR dimer
Kd [1]: 0.77 nM
koff [1]: 0.00119 s⁻¹
kon [1]: 1.88e+06 M⁻¹ s⁻¹

B5: D3 humanised ADV2 (VNAR)
VNAR: TRVDQSPSSLSASVGDRVTITCVLTDTSYGLYSTSWFRKNPGTTDWERMSIGGRYSESVNKGAKSFTLTISSLQPEDSATYYCKAQSGMAISTGSGHGYNWYDGAGTKVEIKQ
notes: also called D3 AD V2
Kd [1]: 51.6 nM
koff [1]: 0.00236 s⁻¹
kon [1]: 45800 M⁻¹ s⁻¹

B6: P3A1 G1 dimer (VNAR)
chain: TRVDQSPSSLSASVGDRVTITCVLTDTSYGLYSTYWYRKNPGSSNKEQISISGRYSESVNKGTKSFTLTISSLQPEDSATYYCRAREARHPWLRQWYDGAGTKVEIKGGGGSGGGGSGGGGSGGGGSGGGGSTRVDQSPSSLSASVGDRVTITCVLTDTSYGLYSTYWYRKNPGSSNKEQISISGRYSESVNKGTKSFTLTISSLQPEDSATYYCRAREARHPWLRQWYDGAGTKVEIKQASGAHHHHHHGAEFEQKLISEEDLG
notes: humanised VNAR dimer
Kd [1]: 0.43 nM
koff [1]: 0.00147 s⁻¹
kon [1]: 4.3e+06 M⁻¹ s⁻¹

B7: P3A1-P3A1-S-mal-vcMMAE (VNAR)
chain: TRVDQTPRTATKETGESLTINCVLTDTSYGLYSTSWFRKNPGTTDWERMSIGGRYVESVNKGAKSFSLRIKDLTVADSATYYCKAREARHPWLRQWYDGAGTVLTVNGGGGSGGGGSGGGGSGGGGSGGGGSTRVDQTPRTATKETGESLTINCVLTDTSYGLYSTSWFRKNPGTTDWERMSIGGRYVESVNKGAKSFSLRIKDLTVADSATYYCKAREARHPWLRQWYDGAGTVLTVNQASGAHHHHHHGAEFEQKLISEEDLG
modifications: chain 1 pos 265 (C-terminal Gly, written G): carboxyl amidated with cysteamine (intein cleavage); its thiol joined by thioether to maleimide MC vc PAB MMAE
Kd [3]: 0.59 nM
koff [3]: 0.0026 s⁻¹
kon [3]: 4.96e+06 M⁻¹ s⁻¹

B8: P3A1-P3A1-Ox-MMAE (VNAR)
chain: TRVDQTPRTATKETGESLTINCVLTDTSYGLYSTSWFRKNPGTTDWERMSIGGRYVESVNKGAKSFSLRIKDLTVADSATYYCKAREARHPWLRQWYDGAGTVLTVNGGGGSGGGGSGGGGSGGGGSGGGGSTRVDQTPRTATKETGESLTINCVLTDTSYGLYSTSWFRKNPGTTDWERMSIGGRYVESVNKGAKSFSLRIKDLTVADSATYYCKAREARHPWLRQWYDGAGTVLTVNQASGAHHHHHHGAEFEQKLISEEDLG
modifications: chain 1 pos 265 (C-terminal Gly, written G): carboxyl derivatised with O,O'-1,3-propanediylbishydroxylamine (C-terminal aminoxy), joined by oxime to benzaldehyde PEG4 MMAE (non-cleavable)
notes: linker as for m77
Kd [3]: 0.78 nM
koff [3]: 0.0032 s⁻¹
kon [3]: 4.2e+06 M⁻¹ s⁻¹

B9: P3A1-P3A1-Ox-vcMMAE (VNAR)
chain: TRVDQTPRTATKETGESLTINCVLTDTSYGLYSTSWFRKNPGTTDWERMSIGGRYVESVNKGAKSFSLRIKDLTVADSATYYCKAREARHPWLRQWYDGAGTVLTVNGGGGSGGGGSGGGGSGGGGSGGGGSTRVDQTPRTATKETGESLTINCVLTDTSYGLYSTSWFRKNPGTTDWERMSIGGRYVESVNKGAKSFSLRIKDLTVADSATYYCKAREARHPWLRQWYDGAGTVLTVNQASGAHHHHHHGAEFEQKLISEEDLG
modifications: chain 1 pos 265 (C-terminal Gly, written G): carboxyl derivatised with O,O'-1,3-propanediylbishydroxylamine (C-terminal aminoxy), joined by oxime to benzaldehyde PEG2 vc PAB MMAE
notes: linker as for m77
Kd [3]: 1.43 nM
koff [3]: 0.00277 s⁻¹
kon [3]: 2.07e+06 M⁻¹ s⁻¹

B10: D3 humanised EL V2 (VNAR)
VNAR: ASVNQSPSSLSASVGDRVTITCVLTDTSYGLYSTSWFRKNPGTTDWERMSIGGRYVESVNKRAKSFTLTISSLQPEDFATYYCKAQSGMAISTGSGHGYNWYDGAGTKVEIK
notes: also called D3 EL V2
Kd [1]: 18.9 nM
kon [1]: 1.85e+06 M⁻¹ s⁻¹

B11: D3 humanised EL V4 (VNAR)
VNAR: ASVNQSPSSLSASVGDRVTITCVLTDTSYGLYSTSWYQQKPGTTDWERMSIGGRYVESVNKRAKSFTLTISSLQPEDFATYYCKAQSGMAISTGSGHGYNWYDGAGTKVEIK
notes: also called D3 EL V4
Kd [1]: 58.5 nM
koff [1]: ~0.0545 s⁻¹
kon [1]: 1.38e+06 M⁻¹ s⁻¹

B13: B1 G2 (loop-grafted humanised B1) (VNAR)
VNAR: TRVDQSPSSLSASVGDRVTITCVLTGANYGLASTYWYRKNPGSSNQERISISGRYSESVNKRTMSFTLTISSLQPEDSATYYCRAYPWGAGAPWLVQWYDGAGTKVEIKQ
notes: humanised VNAR
Kd [1]: 45.9 nM
koff [1]: 0.0079 s⁻¹
kon [1]: 185000 M⁻¹ s⁻¹

B14: B1 G1 (loop-grafted humanised B1) (VNAR)
VNAR: TRVDQSPSSLSASVGDRVTITCVLTGANYGLASTYWYRKNPGSSNKEQISISGRYSESVNKGTKSFTLTISSLQPEDSATYYCRAYPWGAGAPWLVQWYDGAGTKVEIKQ
notes: humanised VNAR
Kd [1]: 82.8 nM
koff [1]: 0.0162 s⁻¹
kon [1]: 220000 M⁻¹ s⁻¹

B15: B1 humanised V5 (VNAR)
VNAR: ASVDQSPSSLSASVGDRVTITCVVTGANYGLAATYWYRKNPGSSNQERISISGRYSESVNKRTMSFTLTISSLQPEDSATYYCKAYPWGAGAPWLVQWYDGAGTKVEIKQ
notes: humanised VNAR; also called B1V5
Kd [1]: 0.74 nM
koff [1]: 3.85e-05 s⁻¹
kon [1]: 52000 M⁻¹ s⁻¹

B16: B1 humanised V7 (VNAR)
VNAR: ASVDQSPSSASASVGDRLTITCVVTGANYGLAATYWYRKNPGSSNQERISISGRYSESVNKRTMSFTLTISSLQPEDSATYYCKAYPWGAGAPWLVQWYDGAGTKLEVKQ
notes: humanised VNAR; also called B1V7
Kd [1]: 0.77 nM
koff [1]: 5.54e-05 s⁻¹
kon [1]: 77400 M⁻¹ s⁻¹

B17: BA11 humanised VNAR (VNAR)
VNAR: TRVDQSPSSLSASVGDRVTITCVLTDTSYPLYSTYWYRKNPGSSNKEQISISGRYSESVNKGTKSFTLTISSLQPEDSATYYCRAMSTNIWTGDGAGTKVEIK
Kd (cynomolgus serum albumin [5]): 1.11 nM
Kd (cynomolgus serum albumin [6]): 3.36 nM

B20: BA11 C-terminal cysteine derivative (VNAR)
VNAR: TRVDQSPSSLSASVGDRVTITCVLTDTSYPLYSTYWYRKNPGSSNKEQISISGRYSESVNKGTKSFTLTISSLQPEDSATYYCRAMSTNIWTGDGAGTKVEIK
modifications: additional C-terminal cysteine from cysteine cleavage of the intein fusion
notes: also called BA11-cys
Kd (cynomolgus serum albumin [6]): 2.1 nM

B23: BA11 C-terminal thiol derivative (VNAR)
VNAR: TRVDQSPSSLSASVGDRVTITCVLTDTSYPLYSTYWYRKNPGSSNKEQISISGRYSESVNKGTKSFTLTISSLQPEDSATYYCRAMSTNIWTGDGAGTKVEIK
modifications: C-terminal thiol from cysteamine cleavage of the intein fusion
notes: also called BA11-SH
Kd (cynomolgus serum albumin [5]): 6.74 nM
Kd (cynomolgus serum albumin [6]): 3.41 nM

— patent publication US20210317204A1 (ALMAC DISCOVERY, published 2021)
